± gives the standard deviation.
Test: protein stability index of a GFP-peptide fusion (GPS, HEK-293T) (PSI 1-6); higher = more stable
[1] = treatment: DMSO, c terminus: native
[2] = treatment: MLN4924 1 uM, 8 h, c terminus: native
[3] = treatment: DMSO, c terminus: a fixed tail appended
[4] = treatment: MLN4924 1 uM, 8 h, c terminus: a fixed tail appended
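Note: 24-mer peptide tiles fused after GFP, lentivirally expressed, FACS-sorted into six equal bins by GFP/DsRed ratio, decoded by Illumina sequencing, PSI is the read-weighted mean bin number.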

| Sequence | protein stability index [1] | protein stability index [2] | protein stability index [3] | protein stability index [4] |
| --- | --- | --- | --- | --- |
| SSGEPVDYNVDIGIPLDGETEEL [MYOZ1] | 5.5 ± 0.21 | 5.23 ± 0.17 |  |  |
| YQYFVCPVEYRSDVNSFVTECEPS [CDS1] |  |  | 2.35 ± 0.26 | 2.36 ± 0.37 |
| ASTTRLYLRKGRGETRICKIYDSP [RAD51] |  |  | 2.94 ± 0.4 | 3.19 ± 0.31 |
| NTKAEMEMSLAEELNHGRQGENQE [FATE1] |  |  | 5.53 ± 0.16 | 5.64 ± 0.12 |
| AWFLPMPQKSLFFHHIPSTCQRVN [SLC19A2] |  |  | 2.29 ± 0.48 | 2.23 ± 0.075 |
| DNSLINQIENLNIQVEDIRIRAIL [LOXL2] |  |  | 2.59 ± 0.25 | 2.66 ± 0.17 |
| KKHKNSQLDKNSEVYQEVQAMFDT [FAM98B] |  |  | 4.31 ± 0.39 | 4.27 ± 0.35 |
| NRVVVSGLPPSGSWQDLKDHMREA [SRSF1] |  |  | 3.93 ± 0.094 | 4.03 ± 0.12 |
| ESCEEKNQLILTASADRTVIVWDG [WDR41] |  |  | 4.01 ± 0.085 | 3.79 ± 0.1 |
| AAPAAGLCGAGSEPSIAPTSCAGN [RSPH3] |  |  | 4.55 ± 0.25 | 4.68 ± 0.26 |
| ATAASSSASSPASVGDPCGGAICG [SLC25A25] |  |  | 4.9 ± 0.34 | 4.85 ± 0.11 |
| AVQGLNLRSPNNFLSYYRLTRFLS [CCND1] |  |  | 2.3 ± 0.18 | 2.36 ± 0.27 |
| QLRGQLQDLDSRLRAGSSEFDSEH [RASAL3] |  |  | 4.71 ± 0.41 | 4.9 ± 0.46 |
| LRWERAWFPPAIMGVVSLVFLIIY [ARL6IP1] |  |  | 3.17 ± 0.1 | 3.08 ± 0.31 |
| AALNNHPDIMNLLIKSGAHFDATN [FEM1C] |  |  | 2.41 ± 0.24 | 2.54 ± 0.3 |
| TIAPTLIADLFVADQRSRMLSIFY [SPNS1] |  |  | 2.87 ± 0.66 | 2.66 ± 0.6 |
| LEASVQDDAGTSGGPSSPPSDPPA [C2CD2L] |  |  | 5.53 ± 0.31 | 5.66 ± 0.12 |
| ERELLGQDEETAMRKSLGEEELS [RSPH3] | 5.48 ± 0.4 | 5.575 ± 0.042 |  |  |
| SRFRKAYKPEQPLVRLRGGAYIGE [LOXL2] |  |  | 3.16 ± 0.26 | 2.98 ± 0.39 |
| RAASSQRAEEEDDDIKQLAAWAT [CHMP4C] | 5.34 ± 0.4 | 5.2 ± 0.2 |  |  |
| SLPETFGDFWRMIWEQRSATVVMM [PTPRD] |  |  | 2.69 ± 0.7 | 2.43 ± 0.83 |
| LQAFGETLLLELEQDSGVQVEGLT [ADAMTS4] |  |  | 3.65 ± 0.63 | 3.79 ± 0.27 |
| FFVPLSYLLMVTVILLPYVSKVTG [TMEM175] |  |  | 3.33 ± 0.26 | 3.11 ± 0.31 |

| Sequence | protein stability index [1] | protein stability index [2] | protein stability index [3] | protein stability index [4] |
| --- | --- | --- | --- | --- |
| LEDIYVMPEYRGQGIGSKIIKKVA [SAT2] |  |  | 3.45 ± 0.37 | 3.79 ± 0.27 |
| VYRAELVGELNGYLRDSSPAPCAD [PWWP2B] |  |  | 3.31 ± 0.21 | 3.52 ± 0.27 |
| RAQYDELARKNREELDKYWSQQIE [KRT18] |  |  | 3.43 ± 0.27 | 3.97 ± 0.85 |
| ETSRSHDLEAVVPQNGSETGWARK [ATP23] |  |  | 4.95 ± 0.2 | 5.21 ± 0.12 |
| MDEKVFTKELDQWIEQLNECKQLS [PPP2CA] |  |  | 4.15 ± 0.17 | 4.15 ± 0.16 |
| VNQPNNNGFTPLHFAAASTHGALC [ANKRD44] |  |  | 2.99 ± 0.3 | 3.06 ± 0.33 |
| KANNLSSLSKKYRQDAKYLNMRST [SEC22B] |  |  | 3.23 ± 0.11 | 3.33 ± 0.24 |
| KKKSVAMHTNYLSACSFTNSDMQI [GNB5] |  |  | 2.8 ± 0.12 | 2.8 ± 0.14 |
| ARHNYNDLCPPIGRRAATALLWLS [GNAS] |  |  | 2.15 ± 0.43 | 2.27 ± 0.35 |
| SDYPSPDISPPIFRRGEKLRVISD [SLA] |  |  | 3.88 ± 0.3 | 4.2 ± 0.25 |
| LKNEIQEVEELDNWQPAVPLMHML [SPATS1] |  |  | 2.8 ± 0.45 | 3.18 ± 0.38 |
| LDKKVEKVTISNRLVSSPCCIVTS [HSP90AB1] |  |  | 3.28 ± 0.34 | 2.98 ± 0.27 |
| SSSYSVSSPRSVDSYSSTQHVPEE [ATF6] |  |  | 5.16 ± 0.14 | 4.99 ± 0.15 |
| CASFIRTRLLLQFTQPQQTSFALE [C8orf76] |  |  | 2.46 ± 0.28 | 2.7 ± 0.58 |
| IEAAVQDRLNEQEGVPSVFNPPPS [FAF2] |  |  | 5.06 ± 0.17 | 5.04 ± 0.15 |
| SNLCCFIPGKVIDEIYRVLRYVNS [FBXO28] |  |  | 2 ± 0.66 | 2.38 ± 0.26 |
| RFRRFRFQEAAGPREALSRLQELC [ZNF263] |  |  | 2.6 ± 0.48 | 2.58 ± 0.45 |
| VEKNEHCIENNIDLQVNRNFSLAT [R3HDM1] |  |  | 4 ± 0.23 | 3.93 ± 0.31 |
| LSHAGQKATAAFSNVGTAISKKFG [TPD52L1] |  |  | 3.73 ± 0.23 | 3.66 ± 0.21 |
| RFRFPSPILKVQYHPRDQNKVLVC [RBBP5] |  |  | 2.32 ± 0.11 | 2.32 ± 0.21 |
| RKLLESEECRMSGEFPSPVSISII [KRT71] |  |  | 2.42 ± 0.42 | 2.19 ± 0.19 |
| RRILDELTLCKSDLESQVESLREE [KRT34] |  |  | 4.82 ± 0.14 | 4.75 ± 0.18 |
| LSGTRESLAQGPDAATTDELSSLG [TBC1D10A] |  |  | 5.23 ± 0.34 | 4.9 ± 0.24 |

| Sequence | protein stability index [1] | protein stability index [2] | protein stability index [3] | protein stability index [4] |
| --- | --- | --- | --- | --- |
| SSRPENIPPKEFHFRHPKRSVSLS [BNIP3L] |  |  | 4.29 ± 0.35 | 4.24 ± 0.051 |
| GRYAYVRGGGDPWTNGSGLALCQR [MCOLN1] |  |  | 2.56 ± 0.37 | 3.02 ± 0.2 |
| PSVKYLSHPRVQSGCDKEALLTGG [RNF180] |  |  | 3.99 ± 0.28 | 4.04 ± 0.29 |
| YLEVAKHFKPHGFSSDKAKAGSSE [ATF4] |  |  | 3.97 ± 0.092 | 4.24 ± 0.33 |
| KRKEEECSTTDHPYKKPYMETSPS [TBX5] |  |  | 5.09 ± 0.22 | 5.02 ± 0.18 |
| TPKCSSPRGQEGSRQDKPLSPAGS [YJU2B] |  |  | 5 ± 0.23 | 5.21 ± 0.23 |
| PGSGPGHGSGSHPGPASGPGPDTG [SPAG8] |  |  | 5.36 ± 0.16 | 5.34 ± 0.069 |
| EPPPVKQELPPYNGFGLVEDSAQN [EFHC1] |  |  | 5.15 ± 0.059 | 5.15 ± 0.066 |
| TLRLEKLGHPALSQEEGKSALEDQ [PPFIA4] |  |  | 5.38 ± 0.19 | 5.14 ± 0.21 |
| AVEWARNIPFFPDLQITDQVALLR [NR2F2] |  |  | 2.64 ± 0.2 | 2.79 ± 0.22 |
| DSDDPSVTLELSQLSMLPHLADLV [VDR] |  |  | 3.41 ± 0.31 | 3.62 ± 0.33 |
| VILHLKEDQTEYLEERRVKEVVKK [HSP90AB1] |  |  | 2.57 ± 0.25 | 2.77 ± 0.36 |
| MGKRDTADIISTVEFNHTGELLAT [PPP2R2C] |  |  | 3.62 ± 0.21 | 3.89 ± 0.31 |
| CVQCKMPVCYQCLEEGKHSSHEVK [TRIM9] |  |  | 4.08 ± 0.44 | 4.19 ± 0.45 |
| FSVLMEKLCKKGLAATTSMAYAKL [FANCE] |  |  | 3.19 ± 0.73 | 2.75 ± 0.56 |
| DMKSLKQVLEMKNQQIHEQEKKIL [MTUS2] |  |  | 4.23 ± 0.046 | 4.31 ± 0.33 |
| PSSSGHLADSDTLSSAEENEPSQA [C18orf25] |  |  | 5.56 ± 0.22 | 5.52 ± 0.11 |
| KKRTEQEETIASLQMEVCRLKKEE [CEP70] |  |  | 5.22 ± 0.2 | 5.19 ± 0.38 |
| NMSLTALREKLLEAEQSLRNLEDI [TEKT4] |  |  | 3.29 ± 0.47 | 3.43 ± 0.46 |
| SDSMHIEDVEAVQKLQDVLHEALQ [ESRRG] |  |  | 3.42 ± 0.29 | 3.54 ± 0.16 |
| AQQLLCDEQAPQRQRLLADLLHNV [DFFB] |  |  | 3.98 ± 0.16 | 3.92 ± 0.24 |
| VGSLPVIVVGRLKVALEPQLWELG [LPCAT4] |  |  | 2.74 ± 0.036 | 2.88 ± 0.6 |
| GASSCDGCKGFFRRSVRKNHMYSC [HNF4A] |  |  | 2.36 ± 0.22 | 2.62 ± 0.26 |

| Sequence | protein stability index [1] | protein stability index [2] | protein stability index [3] | protein stability index [4] |
| --- | --- | --- | --- | --- |
| TRRKKGKKDKDISKEKDTQNQNIT [KMT2E] |  |  | 4.75 ± 0.12 | 5.07 ± 0.1 |
| AKPRLAERMTTREKKVLEAGMGKV [HDAC6] |  |  | 4.38 ± 0.17 | 3.98 ± 0.2 |
| AKDLPCDSKPESALGAPSKSPSSP [TBX5] |  |  | 5.49 ± 0.26 | 5.54 ± 0.2 |
| NDVRQSANYTCVAMSTLGVIEAIA [PTPRD] |  |  | 2.3 ± 0.34 | 2.19 ± 0.3 |
| DSDSCQKCDQPFFWNFKQMWDSKK [WDFY2] |  |  | 3.64 ± 0.16 | 3.71 ± 0.081 |
| LRMLEYEPAARISPLGALQHGFFR [DYRK1B] |  |  | 2.51 ± 0.2 | 2.61 ± 0.33 |
| QSLYQEVFGRLRDENGRPYSPSQY [NFE2L1] |  |  | 3.59 ± 0.31 | 3.4 ± 0.18 |
| HQKLEREARICRLLKHSNIVRLHD [CAMK2B] |  |  | 2.58 ± 0.17 | 2.66 ± 0.43 |
| RVQSVDFMRTDPVCQKLLLDAMNY [KLHL14] |  |  | 2.74 ± 0.2 | 2.64 ± 0.22 |
| EVEIVGVQEHARCVHPRGGVIQSV [C18orf25] |  |  | 3.45 ± 0.35 | 3.6 ± 0.31 |
| IERSKIVSTMRCKTRQKSEKQMEE [PPEF2] |  |  | 4.5 ± 0.21 | 4.5 ± 0.1 |
| ELNKQVVSSSEQLQSCQAEIIELR [KRT34] |  |  | 3.82 ± 0.33 | 4.04 ± 0.53 |
| RDKAKMRNLETQHKVLELTAENER [CEBPB] |  |  | 4.9 ± 0.2 | 5.24 ± 0.24 |
| LQWKSSHFERRDNMNDNFLEGEEE [CHGB] |  |  | 5.36 ± 0.44 | 5.49 ± 0.23 |
| YHTSQSGDEMTSLSEYVSRMKETQ [HSP90AB1] |  |  | 3.9 ± 0.25 | 3.96 ± 0.23 |
| LGTDPTHVMGLYPDLLPTDYRKQL [VPS39] |  |  | 3.34 ± 0.36 | 3.42 ± 0.41 |
| LKIFTEDLPEVESLPRDRVLGFLI [VPS39] |  |  | 2.25 ± 0.49 | 2.23 ± 0.43 |
| TMGLAGRARVKEKFSPEAFTEQLY [ALG2] |  |  | 2.94 ± 0.26 | 2.96 ± 0.13 |
| GPLGDQLHAQLRDLTSSSSDELSW [ELF3] |  |  | 4.04 ± 0.047 | 4.18 ± 0.29 |
| QLIVTARTTRGLDPLFGMCEKFLQ [INTS4] |  |  | 2.15 ± 0.4 | 2.06 ± 0.3 |

Source: the supplement of paper PMC10567573
